Experimental data taken from patent US11833164B2, “Methods of treating Fabry disease in patients having a mutation in the GLA gene” (Amicus Therapeutics, Inc., priority 2019, dated 2023).
Where a chain is given by its changes, count along the chain named. In names and notes the source's numbering stands.

B1: G144R (protein)
chain: MQLRNPELHLGCALALRFLALVSWDIPGARALDNGLARTPTMGWLHWERFMCNLDCQEEPDSCISEKLFMEMAELMVSEGWKDAGYEYLCIDDCWMAPQRDSEGRLQADPQRFPHGIRQLANYVHSKGLKLGIYADVGNKTCARFPGSFGYYDIDAQTFADWGVDLLKFDGCYCDSLENLADGYKHMSLALNRTGRSIVYSCEWPLYMWPFQKPNYTEIRQYCNHWRNFADIDDSWKSIKSILDWTSFNQERIVDVAGPGGWNDPDMLVIGNFGLSWNQQVTQMALWAIMAAPLFMSNDLRHISPQAKALLQDKDVIAINQDPLGKQGYQLRQGDNFEVWERPLSGLAWAVAMINRQEIGGPRSYTIAVASLGKGVACNPACFITQLLPVKRKLGFYEWTSRLRSHINPTGTVLLQLENTMQMSLKDLL
B2: F145C (protein)
chain: B1 chain with R144G, F145C
B3: S148G (protein)
chain: B1 chain with R144G, S148G
B4: P146H (protein)
chain: B1 chain with R144G, P146H
B5: S148C (protein)
chain: B1 chain with R144G, S148C
B6: Y151S (protein)
chain: B1 chain with R144G, Y151S
B7: P146A (protein)
chain: B1 chain with R144G, P146A
B8: F145V (protein)
chain: B1 chain with R144G, F145V
B9: G147A (protein)
chain: B1 chain with R144G, G147A
B10: P146L (protein)
chain: B1 chain with R144G, P146L
B11: G150E (protein)
chain: B1 chain with R144G, G150E
B12: Y151D (protein)
chain: B1 chain with R144G, Y151D
B13: G150V (protein)
chain: B1 chain with R144G, G150V
B14: F149C (protein)
chain: B1 chain with R144G, F149C
B15: P146T (protein)
chain: B1 chain with R144G, P146T
B16: G144S (protein)
chain: B1 chain with R144S
B17: Y151C (protein)
chain: B1 chain with R144G, Y151C
B18: F145L (protein)
chain: B1 chain with R144G, F145L
B19: S148T (protein)
chain: B1 chain with R144G, S148T
B20: Y152F (protein)
chain: B1 chain with R144G, Y152F
B21: F145Y (protein)
chain: B1 chain with R144G, F145Y

Test system: mutant form of α-Gal A expressed in HEK-293 cells
Test: HEK assay (GLP HEK / Migalastat Amenability Assay): α-Gal A activity in lysates of transiently transfected HEK-293 cells incubated with or without 10 μM migalastat
Assay type: cell-based, human
Conditions: 10 μM migalastat versus baseline
How it was run: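 HEK-293 cells transiently transfected with mutant α-Gal A and incubated with or without 10 μM migalastat; lysate activity given as nmol free 4-MU released per mg protein per hour. Values are mean±SEM.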

Molecule | Absolute increase (% WT)
B1 | 37.7
B2 | 25.7
B3 | 11.8
B4 | 21.8
B5 | 19.3
B6 | 22.2
B7 | 25.4
B8 | 5.7
B9 | 3.0
B10 | 12.4
B11 | 12.3
B12 | 11.5
B13 | 9.2
B14 | 13.9
B15 | 25.0
B16 | 30.4
B17 | 13.2
B18 | 61.8
B19 | 15.9
B20 | 11.4
B21 | 23.5

Same assay, conditions: 10 μM migalastat α-Gal A activity relative to baseline

Molecule | Relative increase
B1 | 2.0
B2 | 14.4
B3 | 11.2
B4 | 3.7
B5 | 1.6
B6 | 1.3
B7 | 1.6
B10 | 1.5
B11 | 1.2
B12 | 1.4
B13 | 4.3
B14 | 1.3
B15 | 1.8
B16 | 1.6
B17 | 1.4
B18 | 5.5
B19 | 1.2
B20 | 1.3
B21 | 1.2

Same assay, conditions: 10 μM migalastat, 5 days; percentage of baseline wild-type α-Gal A activity; mean ± SEM

Molecule | 10 μM migalastat α-Gal A activity (% WT)
B1 | 73.4 ± 6.5
B2 | 27.8 ± 0.8
B3 | 12.9 ± 1
B4 | 30.2 ± 2.1
B5 | 49.5 ± 2
B6 | 107 ± 4.9
B7 | 64.1 ± 4.4
B8 | 5.7 ± 0.6
B9 | 3 ± 0.2
B10 | 37.1 ± 2.2
B11 | 73.8 ± 7
B12 | 40.8 ± 2.2
B13 | 12.1 ± 0.7
B14 | 60.9 ± 6.4
B15 | 58.6 ± 2.4
B16 | 78 ± 5.6
B17 | 45.6 ± 2
B18 | 75.7 ± 2.9
B19 | 82.4 ± 3.7
B20 | 56.8 ± 2.7
B21 | 131.7 ± 5.1

Same assay, conditions: absence of migalastat; mean activity below the limit of detection (<142 nmol/mg/hr)

Molecule | Baseline α-Gal A activity (nmol/mg/hr)
B8 | BLD (“BLD” indicates that the mean α-Gal A activity was below the limit of detection (<142 nmol/mg/hr))
B9 | BLD (“BLD” indicates that the mean α-Gal A activity was below the limit of detection (<142 nmol/mg/hr))

Same assay, conditions: absence of migalastat; percentage of baseline wild-type α-Gal A activity; mean ± SEM

Molecule | Baseline α-Gal A activity (% WT)
B1 | 35.7 ± 2.8
B2 | 2.1 ± 0.2
B3 | 1.1 ± 0.1
B4 | 8.5 ± 0.7
B5 | 30.2 ± 2.2
B6 | 84.8 ± 4.2
B7 | 38.7 ± 2.5
B10 | 24.7 ± 1.8
B11 | 61.5 ± 6.6
B12 | 29.3 ± 1.7
B13 | 2.9 ± 0.1
B14 | 47 ± 4.4
B15 | 33.6 ± 1.5
B16 | 47.6 ± 2.4
B17 | 32.4 ± 1.5
B18 | 13.9 ± 0.8
B19 | 66.5 ± 3.8
B20 | 45.4 ± 2.6
B21 | 108.1 ± 6.2

Same assay, conditions: lysates of HEK-293 cells transfected with the mutant form, incubated 5 days in the absence of migalastat; mean ± SEM

Molecule | Baseline α-Gal A activity [nmol/mg/h]
B1 | 10574 ± 838
B2 | 768 ± 54
B3 | 435 ± 55
B4 | 3220 ± 211
B5 | 11927 ± 1020
B6 | 30047 ± 1943
B7 | 15393 ± 1271
B10 | 9940 ± 899
B11 | 18804 ± 1070
B12 | 10673 ± 604
B13 | 1080 ± 63
B14 | 15198 ± 1188
B15 | 13711 ± 1154
B16 | 14190 ± 967
B17 | 11271 ± 579
B18 | 5455 ± 412
B19 | 24827 ± 1221
B20 | 18675 ± 907
B21 | 41985 ± 2942

Same assay, conditions: lysates of HEK-293 cells transfected with the mutant form, incubated 5 days with 10 μM migalastat; mean ± SEM

Molecule | 10 μM migalastat α-Gal A activity [nmol/mg/h]
B1 | 21406 ± 1764
B2 | 11083 ± 678
B3 | 4879 ± 263
B4 | 11903 ± 844
B5 | 19343 ± 919
B6 | 37527 ± 2003
B7 | 25029 ± 1628
B8 | 2359 ± 333
B9 | 1159 ± 74
B10 | 14540 ± 903
B11 | 22710 ± 1059
B12 | 15196 ± 1025
B13 | 4639 ± 361
B14 | 19032 ± 1272
B15 | 24123 ± 2081
B16 | 23153 ± 1847
B17 | 15859 ± 752
B18 | 29794 ± 1799
B19 | 30620 ± 813
B20 | 23612 ± 1095
B21 | 51524 ± 2970
